Source: doi:10.1101/2024.01.24.576984 (bioRxiv, 2024)

Target: hsINTS13(1-256Δ27-48) (human, UniProt Q9NVM9 1-256, Δ27-48)
Test: crystal structure

Binder	binding result
EDRLERLQEILRKFLYLEREFRQITIS [hsZNF655(93-119)]	binds

Target: 2S-hsINTS13-hsINTS14 (human, UniProt Q9NVM9;Q96SY0)
Test: fluorescence polarisation

Kd [nM]	Binder
633	DDWEIGVGNLIIDLDAD [GFP-hsZNF608 (24-40)]
573	DEWDIGVGNLIIDLDAD [GFP-hsZNF609 (25-41)]
> 10000	YDSDGDKSDDLVVDVSNE [GFP-hsTLE3 (238-255)]
2630	EGEEDEEGKLVIDEPAK [GFP-hsHDGF S2E (130-146)]

Continued, binder first:

Binder	Kd [nM]
EDRLERLQEILRKFLYLEREFRQITIS [GFP-hsZNF655 (93-119)]	17.6
DTGSETDEEDKLHIAEDD [GFP-hsZEB2 (33-50)]	> 10000
EGSSDEEGKLVIDEPAK [GFP-hsHDGF (130-146)]	5850
